Experimental findings from US20170312332A1 (Stanford University, published 2017) are described below.

For the experiment, the target named is recombinant Drp1 (GST-Drp1) (human, UniProt O00429 1-736). The experiment in a line: cell-based or functional assay.

Ends that are not written are not given here.

Sequence of recombinant Drp1 (GST-Drp1) (O00429 other isoform, or with tags, fused parts or gaps): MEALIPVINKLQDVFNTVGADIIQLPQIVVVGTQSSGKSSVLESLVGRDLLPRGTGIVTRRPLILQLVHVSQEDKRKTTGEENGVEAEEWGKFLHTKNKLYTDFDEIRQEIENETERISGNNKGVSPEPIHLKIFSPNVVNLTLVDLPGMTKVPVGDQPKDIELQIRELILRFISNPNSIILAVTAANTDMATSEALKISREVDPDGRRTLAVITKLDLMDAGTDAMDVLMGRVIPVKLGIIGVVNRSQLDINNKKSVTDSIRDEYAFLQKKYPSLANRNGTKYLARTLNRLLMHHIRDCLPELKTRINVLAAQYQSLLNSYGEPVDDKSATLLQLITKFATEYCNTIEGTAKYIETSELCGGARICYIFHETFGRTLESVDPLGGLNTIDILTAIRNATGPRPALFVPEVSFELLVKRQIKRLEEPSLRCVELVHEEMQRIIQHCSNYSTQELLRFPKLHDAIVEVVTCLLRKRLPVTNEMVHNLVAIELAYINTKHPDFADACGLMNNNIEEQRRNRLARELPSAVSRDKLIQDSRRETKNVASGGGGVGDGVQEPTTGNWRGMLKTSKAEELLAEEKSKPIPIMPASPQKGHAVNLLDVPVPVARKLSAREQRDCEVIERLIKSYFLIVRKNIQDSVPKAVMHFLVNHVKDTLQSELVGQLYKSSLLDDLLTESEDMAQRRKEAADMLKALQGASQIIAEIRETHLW

B1: P109 (peptide)
peptide: RRRQRRKKRGYGGKLSAREQRD-NH2
With B1, the “GTPase activity of recombinant Drp1 (in vitro GTPase assay kit)” value was 40 % inhibition.
